No end group written: not given here.
T1: human TREM2 on the cell surface (human, UniProt Q9NZC2 19-230)
T1 sequence: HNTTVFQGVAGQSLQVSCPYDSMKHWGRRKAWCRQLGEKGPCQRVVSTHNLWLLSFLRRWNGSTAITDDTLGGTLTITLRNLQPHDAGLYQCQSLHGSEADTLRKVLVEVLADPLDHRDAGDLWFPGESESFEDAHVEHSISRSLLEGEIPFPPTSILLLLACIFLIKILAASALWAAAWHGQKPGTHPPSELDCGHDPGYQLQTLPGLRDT

T2: human TREM2 full length stalk region peptide (aa 129-172) (human, biotinylated (site not stated))
T2 construct: also called Human TREM2 peptide (aa 129-172); full-length TREM2 stalk peptide
T2 peptide: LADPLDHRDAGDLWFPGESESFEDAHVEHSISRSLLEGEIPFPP

T3: human TREM2 truncated stalk peptide (aa 149-163) (human, also: biotinylated (site not given here))
T3 construct: also called Human TREM2 peptide (aa 149-163); truncated stalk peptide containing the ADAM10/17 cleavage site
T3 peptide: SFEDAHVEHSISRSL

T4: mouse TREM2 full length stalk region peptide (aa 131-169) (mouse, UniProt Q99NH8 131-169, biotinylated (site not stated))
T4 peptide (looked up): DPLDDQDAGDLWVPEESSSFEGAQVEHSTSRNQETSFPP

T5: His-tagged human TREM2 ECD (human, UniProt Q9NZC2 19-172)
T5 construct: Biacore and HDX say only recombinant human TREM2 (ECD); also called recombinant human TREM2; hTREM2
T5 sequence: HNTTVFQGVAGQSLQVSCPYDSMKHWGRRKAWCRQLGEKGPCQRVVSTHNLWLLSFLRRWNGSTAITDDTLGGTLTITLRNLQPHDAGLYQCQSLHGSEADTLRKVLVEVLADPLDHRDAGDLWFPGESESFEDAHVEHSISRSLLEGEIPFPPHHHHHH


Experiments:
[1] = biological target: T1, human TREM2 on the cell surface; experiment: cell-based or functional assay
[2] = biological target: T1, human TREM2 on the cell surface; experiment: cell binding, human macrophages, dose titration
[3] = biological target: T2, human TREM2 full length stalk region …; experiment: ELISA on biotinylated peptide captured by streptavidin; A450 normalised to isotype control
Summary of the method: (§1)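 Sandwich ELISA: biotinylated TREM2 stalk peptides captured on streptavidin-coated plates, antibodies added for 1 h in 1% BSA/PBS, binding detected with anti-human kappa-HRP and TMB at A450. Values expressed as fold over isotype-control background.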

[4] = biological target: T3, human TREM2 truncated stalk peptide (aa …); experiment: as above
Summary of the method: as §1

[5] = biological target: T4, mouse TREM2 full length stalk region …; experiment: as above
Summary of the method: as §1

[6] = biological target: T5, His-tagged human TREM2 ECD; experiment: SPR (Biacore), antibody captured via anti-human Fab, recombinant TREM2 ECD injected, 1:1 fit
Method: (§2) Surface plasmon resonance (Biacore™ 8K instrument) was used to measure anti-TREM2 antibody affinities for human and cynomolgus TREM2 ECD. Anti-TREM2 antibodies were captured using Human Fab Capture Kit (GE Healthcare Life Sciences, Catalog No. 28958325) on a Biacore Series S CM5 sensor chip (GE Healthcare Life Sciences, Catalog No. 29149604). Serial 3-fold dilutions of recombinant human or cynomolgus TREM2 were injected at a flow rate of 30 μL/min. Antibody binding was monitored for 300 seconds, followed by monitoring of antibody dissociation for 600+seconds in HBS-EP+ running buffer (GE Healthcare Life Sciences, Catalog No. BR100669). The binding response was corrected by subtracting the RU value from a blank flow cell. A 1:1 Languir model of simultaneous fitting of kₒₙ and koff was used for kinetics analysis.

[7] = biological target: T6, recombinant cynomolgus TREM2 ECD (cynomolgus); experiment: as above
T6 construct: extracellular domain; also called cyno TREM2
Method: as §2

[8] = biological target: T5, His-tagged human TREM2 ECD; experiment: SPR (Biacore)
Method: as §2
(§3) Sequence optimization was conducted by searching within CDR sequences for residues that are susceptible to chemical modification (e.g., asparagine deamidation motifs (NG), aspartic acid isomerization motifs (DS), and potential oxidation residues (tryptophan (W) and methionine (M)) and making amino acid substitutions with conservative and germline residues to remove such sequence liabilities. Humanized and sequence-optimized variants of anti-TREM2 antibodies were then analyzed for binding kinetics using Biacore and dose-titrated cell binding to HEK293-H6 cells (see, Example 1 for representative protocols).

[9] = biological target: T1, human TREM2 on the cell surface; experiment: flow cytometry, dose-titrated binding to HEK293-H6 cells
Method: After incubation, the cells were centrifuged and washed in FACS buffer (PBS+0.5% BSA) twice. Mixed cells were resuspended in FACS buffer with human Trustain FcX solution (Biolegend, Catalog No. 422302) at a density of 10⁶/mL per cell line. The mixed cell lines were seeded at 200,000 cells per well in a 96-well round-bottom plate and incubated for 20 minutes at room temperature. After incubation, the cells were centrifuged and incubated with anti-TREM2 antibodies of about 0-200 nM dose titration for 45 minutes on ice. After incubation, the cells were centrifuged and washed with FACS buffer three times. […] After incubation, the cells were washed with FACS buffer three times, resuspended in 100 μL of FACS buffer, and analyzed by flow cytometry (BD FACSCanto II, San Jose, Calif.), for which 30,000 events were obtained for each sample. Mean fluorescence intensity per cells were calculated by FlowJo software and used for generating dose response binding curve.
as §3

Binder	Survival EC50 (nM), plate coated mAb, human macrophages [1]	pSyk activation (HEK293-H6) EC50 (nM) [1]	EC50 [2]	fold over background (A450) [3]	fold over background (A450) [4]	fold over background (A450) [5]	Kd [6]	Kd [7]	NFAT EC50 (nM), plate coated mAb [1]	Kd [8]	pSyk activation (human macrophages) EC50 (nM) [1]	EC50 [9]
CL0020314 (antibody, V domains shown, also called Clone CL0020314) VH: DVKLVESGGGLVKLGGSLKLSCAASGFTFSSYYMSWVRQTPEKRLELVAAINTNGGRTYYPDTVKGRFTISRDNAKNTLYLQMSSLKSEDTALYYCARESDGGAFAYWGQGTLVTVSA VL: DVVMTQTPLSLPVSLGDQASISCRSSQSLVHSNGNTYLHWYLQKPGQSPKLLIYKVSNRFSGVPDRFSGSGSGTDFTLKISRVEAEDLGVYFCSQNTHVPLTFGAGTKLELK	1.6 nM	18.8 nM	0.05 nM	11 fold	1.2 fold	1 fold	0.33 nM	56.9 nM	–	–	–	–
CL0020315 (antibody, V domains shown, also called Clone CL0020315) VH: EVQLQQSGPELVKPGASVKISCKASGYTFTDYNIHWVKQSHGKSLEWIGYIYPYNGVTGYNQKFKSKATLTVDNSSSTAYMELRSLTSEDSAVYYCARSRVDGDYWGQGTTLTVSS VL: DVVMTQTPLSLPVSLGDQASISCRSSQSLVHSNGNTYLHWYLQKPGQSPKLLIYKISNRFSGVPDRFSGSGSGTDFTLKISRVEAEDLGVYFCSQSTHVPLTFGAGTKLELK	10.1 nM	–	5.6 nM	8.7 fold	1.3 fold	6.8 fold	0.0259 nM	2.52 nM	72.7 nM	–	–	–
CL0020313 (antibody, V domains shown, also called Clone CL0020313) VH: QVQLKQSGPGLLQPSQSLSITCTVSGFSLTSYGVHWVRQSPGKGLEWLGVIWSGGITLYNAAFMSRLSITKDNSKSQVFFKMNSLQADDTAIYYCAKVGYGSSSDYWGQGTTLTVSS VL: DVLMTQSPLSLPVSLGDQASFSCRSSQSIVHSNGNTYLEWYLQKPGQSPKLLIYKVSNRFSGVPDRFSGSGSGTDFTLKISRVEAEDLGVYYCFQGSHVPFTFGSGTKLEIK	30.7 nM	46.6 nM	1.2 nM	12 fold	1.2 fold	–	14 nM	13.8 nM	–	–	–	–
CL0020123 (antibody, V domains shown, also called Clone CL0020123) VH: EVQLQQSGAELVRSGASVKLSCTASGFSIEDFYIHWVKQRPEQGLEWIGWIDPENGDSKYAPKFQGKATMTADTSSNTAYLHLSSLTSEDTAVYYCHADHGNYGSTMDYWGQGTSVTVSS VL: DIQMNQSPSSLSASLGDTVTITCHASQHINVWLSWYQQKPGDHPKLLIYKASNLHTGVPSRFSGSGSGTGFTLTISSLQPEDIATYYCQQGQTYPRTFGGGTKLEIK	44.7 nM	–	0.3 nM	1.2 fold	1.2 fold	1 fold	0.068 nM	5.7 nM	–	0.1 nM	7 nM	0.26 nM
CL0020139 (antibody, V domains shown, also called Clone CL0020139) VH: EVQLQQSGPELVKPGASVKMSCKAPGYSFTSYLMNWVKQKPGQGLEWIGYINPYSAGSNYNEKFKDKATLTSDKSSSTAYMELRSLTSEDSAVYFCARSSYRYGFDYWGQGTTLTVSS VL: DIQMTQSSSSFSVSLGDRVTITCKASEDIYNRLAWYQQKPGNAPRLLISGATSLETGVPSRFSGSGSGKDYTLSITSLQTEDVATYSCQQYWSTPWTFGGGTKLEIK	1.8 nM	–	1.6 nM	1.6 fold	1.3 fold	1.4 fold	1.6 nM	0.3 nM	30.8 nM	–	23.8 nM	–
